Target: the molecule itself
Assay: crystal structure; hanging drop vapor diffusion, room temperature, 16% PEG 8000, 100 mM HEPES, 200 mM calcium acetate, 200 μM 5-AU, pH 7.5; two monomers in the asymmetric unit

B1: Pseudomonas aeruginosa dihydropyrimidinase (enzyme)
chain: MSLLIRGATVVTHEESYRADVLCANGLIQAIGENLETPSGCDVLDGGGQYLMPGGIDPHTHMQLPFMGTVASEDFFSGTAAGLAGGTTSIIDFVIPNPRQSLLEAFHTWRGWAQKSAADYGFHVAITWWSDEVAREMGELVAQHGVNSFKHFMAYKNAIMAADDTLVASFERCLELGAVPTVHAENGELVFHLQQKLLAQGLTGPEAHPLSRPPQVEGEAASRAIRIAETLGTPLYLVHISSREALDEIAYARAKGQPVYGEVLAGHLLLDDSVYRHPDWATAAGYVMSPPFRPVEHQEALWRGLQSGNLHTTATDHCCFCAEQKAMGRDDFSKIPNGTAGIEDRMALLWDAGVNSGRLSMHEFVALTSTNTAKIFNLFPRKGAIRVGADADLVLWDPQGSRTLSAATHHQRVDFNIFEGRTVRGIPSHTISQGKLLWAAGDLRAEPGAGRYVERPAYPSVYEVLGRRAERQRPVAVER
modifications: carbamylated Lys150 (Kcx150)
notes: dihydropyrimidinase of Pseudomonas aeruginosa (PaDHPase), wild type; Binuclear Zn centre (Znα, Znβ) in each monomer; also called PaDHPase; DHPase
Does B1 bind?
Result: binds

Reference: PMC8860565, “Molecular Insights into How the Dimetal Center in Dihydropyrimidinase Can Bind the Thymine Antagonist 5-Aminouracil: A Different Binding Mode from the Anticancer Drug 5-Fluorouracil” (Bioinorganic Chemistry and Applications, 2022)
